Here are results for two variants from article PMC10687025, “Endosomal Arl4A attenuates EGFR degradation by binding to the ESCRT-II component VPS36” (Nature Communications, 2023).

B1: untagged WT (pSG5) [not stated] / VPS36 precipitated with HA beads (Fig. 4c) [not stated] (parent)
chain 1: MGNGLSDQTSILSNLPSFQSFHIVILGLDCAGKTTVLYRLQFNEFVNTVPTKGFNTEKIKVTLGNSKTVTFHFWDVGGQEKLRPLWKSYTRCTDGIVFVVDSVDVERMEEAKTELHKITRISENQGVPVLIVANKQDLRNSLSLSEIEKLLAMGELSSSTPWHLQPTCAIIGDGLKEGLEKLHDMIIKRRKMLRQQKKKR
chain 2: MDRFVWTSGLLEINETLVIQQRGVRIYDGEEKIKFDAGTLLLSTHRLIWRDQKNHECCMAILLSQIVFIEEQAAGIGKSAKIVVHLHPAPPNKEPGPFQSSKNSYIKLSFKEHGQIEFYRRLSEEMTQRRWENMPVSQSLQTNRGPQPGRIRAVGIVGIERKLEEKRKETDKNISEAFEDLSKLMIKAKEMVELSKSIANKIKDKQGDITEDETIRFKSYLLSMGIANPVTRETYGSGTQYHMQLAKQLAGILQVPLEERGGIMSLTEVYCLVNRARGMELLSPEDLVNACKMLEALKLPLRLRVFDSGVMVIELQSHKEEEMVASALETVSEKGSLTSEEFAKLVGMSVLLAKERLLLAEKMGHLCRDDSVEGLRFYPNLFMTQS

In this assay the parent is B1. The assay can be described thus: co-immunoprecipitation (HA beads) with densitometric quantification. The conditions noted are these: with VPS36 precipitated with HA beads (Fig. 4c); HeLa cell lysates; parent: 1; read off a plot.
As for chain 1 MGNGLSDQTSILSNLPSFQSFHIVILGLDCAGKTTVLYRLQFNEFVNTVPNKGFNTEKIKVTLGNSKTVTFHFWDVGGQEKLRPLWKSYTRCTDGIVFVVDSVDVERMEEAKTELHKITRISENQGVPVLIVANKQDLRNSLSLSEIEKLLAMGELSSSTPWHLQPTCAIIGDGLKEGLEKLHDMIIKRRKMLRQQKKKR [chain 1 T51N], the ratio to parent came to 2.6. Turning to chain 1 MGNGLSDQTSILSNLPSFQSFHIVILGLDCAGKTTVLYRLQFNEFVNTVPTKGFNTEKIKVTLGNSKTVTFHFWDVGGLEKLRPLWKSYTRCTDGIVFVVDSVDVERMEEAKTELHKITRISENQGVPVLIVANKQDLRNSLSLSEIEKLLAMGELSSSTPWHLQPTCAIIGDGLKEGLEKLHDMIIKRRKMLRQQKKKR [chain 1 Q79L], the ratio to parent turned out to be 1.4.
